Results reported in paper PMC3415792 (ACS chemical biology, 2011).

What was measured:
crystal structure = molecular target: the molecule itself; assay: crystal structure
[1] = molecular target: soluble human CD40 extracellular domain (human); assay: SPR

- Kd [1]: ~13 µM
B1: myc tagged form of soluble human CD40L (ligand)
chain: NMGDQNPQIAAHVISEASSKTTSVLQWAEKGYYTMSNNLVTLENGKQLTVKRQGLYYIYAQVTFCSNREASSQAPFIASLCLKSPGRFERILLRAANTHSSAKPCGQQSIHLGGVFELQPGASVFVNVTDPSQVSHGTGFTSFGLLKL
modifications: glycan (3 glycan chains in the model of the trimer)
- stoichiometry N (crystal structure): 3
